Reference: publication PMC2610489 (Developmental cell, 2008)

Molecular target: T1, Homothorax (Hth) (Drosophila, UniProt O46339 1-487)
T1 sequence (looked up): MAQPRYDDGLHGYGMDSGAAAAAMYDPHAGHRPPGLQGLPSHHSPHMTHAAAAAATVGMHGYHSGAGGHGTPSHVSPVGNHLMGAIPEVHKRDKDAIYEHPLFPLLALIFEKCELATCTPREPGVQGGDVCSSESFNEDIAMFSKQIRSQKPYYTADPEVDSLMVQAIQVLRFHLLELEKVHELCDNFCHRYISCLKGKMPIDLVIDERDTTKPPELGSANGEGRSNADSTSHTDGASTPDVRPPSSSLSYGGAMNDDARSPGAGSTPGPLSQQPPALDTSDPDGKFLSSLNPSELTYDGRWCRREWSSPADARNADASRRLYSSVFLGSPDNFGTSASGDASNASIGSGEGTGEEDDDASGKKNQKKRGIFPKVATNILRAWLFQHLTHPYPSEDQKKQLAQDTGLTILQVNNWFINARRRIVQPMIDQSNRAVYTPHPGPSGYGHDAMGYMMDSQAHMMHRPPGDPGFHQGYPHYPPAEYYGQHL
Assay: native gel or EMSA

B1: Extradenticle (Exd) (natural protein, Drosophila, UniProt P40427 1-376, looked up)
chain: MEDPNRMLAHTGGMMAPQGYGLSGQDDGQNAGSENEVRKQKDIGEILQQIMSISEQSLDEAQARKHTLNCHRMKPALFSVLCEIKEKTVLSIRNTQEEEPPDPQLMRLDNMLIAEGVAGPEKGGGGAAAASAAAASQGGSLSIDGADNAIEHSDYRAKLAQIRQIYHQELEKYEQACNEFTTHVMNLLREQSRTRPITPKEIERMVQIIHKKFSSIQMQLKQSTCEAVMILRSRFLDARRKRRNFSKQASEILNEYFYSHLSNPYPSEEAKEELARKCGITVSQVSNWFGNKRIRYKKNIGKAQEEANLYAAKKAAGASPYSMAGPPSGTTTPMMSPAPPQDSMGYPMGSGGYDQQQPYDNSMGGYDPNLHQDLSP
- binding result: binds
